# Reference: US20200323888A1, “INHIBITORS” (VESTLANDETS INNOVASJONSSELSKAP AS, priority 2017, published 2020)
# Square brackets hold non-standard residues; d marks the D form. Ends that are not written are not given here. Nle = CCCC[C@H](N)C(=O)O; CoA = coenzyme A
# T1: MBP-HishNAA80 fusion protein (MBP-Naa80) (human, UniProt Q93015-2 1-308)
# T1 sequence (looked up): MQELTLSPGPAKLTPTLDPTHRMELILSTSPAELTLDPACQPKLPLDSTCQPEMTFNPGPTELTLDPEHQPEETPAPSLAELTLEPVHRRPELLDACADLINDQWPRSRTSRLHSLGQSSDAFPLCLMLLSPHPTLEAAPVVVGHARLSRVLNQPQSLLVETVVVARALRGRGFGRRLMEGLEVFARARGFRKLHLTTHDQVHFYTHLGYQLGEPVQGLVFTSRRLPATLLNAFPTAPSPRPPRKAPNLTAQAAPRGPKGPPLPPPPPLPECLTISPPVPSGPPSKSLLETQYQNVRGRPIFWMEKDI
# T2: NatA complex (Naa15-Naa10) (human, UniProt P41227 1-235; Q9BXJ9 1-866)
# T2 sequence (looked up) 1: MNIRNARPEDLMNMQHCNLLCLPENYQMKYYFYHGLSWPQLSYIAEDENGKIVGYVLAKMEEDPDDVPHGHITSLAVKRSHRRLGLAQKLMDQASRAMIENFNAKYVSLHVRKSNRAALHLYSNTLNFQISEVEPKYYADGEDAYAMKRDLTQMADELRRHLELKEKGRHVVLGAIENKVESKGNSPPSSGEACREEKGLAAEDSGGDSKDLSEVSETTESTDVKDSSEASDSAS
# T2 sequence (looked up) 2: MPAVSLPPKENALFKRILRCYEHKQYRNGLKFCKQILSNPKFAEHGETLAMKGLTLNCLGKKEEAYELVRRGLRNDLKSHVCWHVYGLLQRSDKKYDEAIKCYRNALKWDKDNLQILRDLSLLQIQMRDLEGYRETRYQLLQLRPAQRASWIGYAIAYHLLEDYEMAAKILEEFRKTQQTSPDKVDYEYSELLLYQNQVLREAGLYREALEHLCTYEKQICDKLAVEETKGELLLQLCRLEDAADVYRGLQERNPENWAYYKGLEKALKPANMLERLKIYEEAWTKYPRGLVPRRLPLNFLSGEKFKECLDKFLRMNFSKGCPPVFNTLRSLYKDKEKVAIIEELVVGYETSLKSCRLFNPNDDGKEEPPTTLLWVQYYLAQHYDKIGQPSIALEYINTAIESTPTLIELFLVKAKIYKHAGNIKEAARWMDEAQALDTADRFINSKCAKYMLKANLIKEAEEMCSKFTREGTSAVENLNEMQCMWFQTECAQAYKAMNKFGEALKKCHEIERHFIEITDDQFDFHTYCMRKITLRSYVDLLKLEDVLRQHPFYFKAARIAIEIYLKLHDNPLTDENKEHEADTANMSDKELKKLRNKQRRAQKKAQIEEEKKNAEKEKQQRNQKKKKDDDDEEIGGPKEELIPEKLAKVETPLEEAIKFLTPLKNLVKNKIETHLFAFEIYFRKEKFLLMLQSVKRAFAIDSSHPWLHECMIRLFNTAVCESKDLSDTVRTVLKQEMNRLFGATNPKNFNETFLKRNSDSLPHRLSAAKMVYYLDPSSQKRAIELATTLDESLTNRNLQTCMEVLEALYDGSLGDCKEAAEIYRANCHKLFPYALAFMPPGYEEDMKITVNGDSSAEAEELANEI
# T3: Naa80 (Homo sapiens, UniProt Q93015)
# T3 construct: The PCR product containing the CDS was inserted into the TOPO TA vector; made in house; host or cells: E. coli BL21 Star (DE3)
# T3 sequence (Q93015 1-308 isoform Q93015-2): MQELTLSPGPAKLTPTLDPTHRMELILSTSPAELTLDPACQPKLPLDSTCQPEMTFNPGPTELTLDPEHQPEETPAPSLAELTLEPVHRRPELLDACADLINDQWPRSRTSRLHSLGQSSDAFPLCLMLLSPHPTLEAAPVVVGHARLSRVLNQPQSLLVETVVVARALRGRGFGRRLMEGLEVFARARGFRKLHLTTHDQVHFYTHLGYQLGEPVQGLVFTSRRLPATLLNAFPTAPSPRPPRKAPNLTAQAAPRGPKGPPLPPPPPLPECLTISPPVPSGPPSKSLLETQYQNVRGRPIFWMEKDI
# Biological target: T1, MBP-HishNAA80 fusion protein (MBP-Naa80)
# Experiment: cell-based or functional assay
# Conditions: not given
row,Product formation,Molecule
1,42.4 µM,EEEIAALRWGRPVGRRRRPVRVYP [EEEI24]
2,2.06 µM,MLGPEGGRWGRPVGRRRRPVRVYP [MLGP24]
3,2.28 µM,MAPLDLDRWGRPVGRRRRPVRVYP [MAPL24]
4,2.15 µM,MELLSPPRWGRPVGRRRRPVRVYP [MELL24]
5,-4.25 µM,MTNKSSLRWGRPVGRRRRPVRVYP [MTNK24]
6,119 µM,MDELFPLRWGRPVGRRRRPVRVYP [MDEL24]
7,1.14 µM,SESSSKSRWGRPVGRRRRPVRVYP [SESS24]
8,-0.96 µM,AVFADLDRWGRPVGRRRRPVRVYP [AVFA24]
9,3.37 µM,MKKSYSGRWGRPVGRRRRPVRVYP [MKKS24]
10,50.5 µM,DDDIAALRWGRPVGRRRRPVRVYP [DDDI24]

# Biological target: T2, NatA complex (Naa15-Naa10)
# Experiment: cell-based or functional assay
# Conditions: not given
row,"IC50 (µM), Nt-acetylation inhibition",Molecule
1,0.82 µM,{CoA-Ac}-SSMP-NH2 [CoA-Ac-SSMP]
2,1.28 µM,{CoA-Ac}-SSME-NH2 [CoA-Ac-SSME]
3,12.1 µM,{CoA-Ac}-SAAE-NH2 [CoA-Ac-SAAE]
4,2.1 µM,{CoA-Ac}-SSMPV-NH2 [CoA-Ac-SSMPV]
5,15.4 µM,{CoA-Ac}-SESS-NH2 [CoA-Ac-SESS]
6,9.47 µM,{CoA-Ac}-SSSE-NH2 [CoA-Ac-SSSE]
7,247 µM,{CoA-Ac}-AASE-NH2 [CoA-Ac-AASE]
8,62.4 µM,{CoA-Ac}-SASE-NH2 [CoA-Ac-SASE]
9,4.7 µM,{CoA-Ac}-SSAE-NH2 [CoA-Ac-SSAE]
10,> 1000 µM,{CoA-Ac}-PS[Nle]P (not fully specified (C-terminus); printed as CoA-Ac-PS(Nle)P) [CoA-Ac-PS(Nle)P]
11,5.3 µM,{CoA-Ac}-SSAA-NH2 [CoA-Ac-SSAA]
12,36.2 µM,{CoA-Ac}-SYAE-NH2 [CoA-Ac-SYAE]

# Biological target: T3, Naa80
# Experiment: Naa80 substrate screening assay (peptide acetylation by purified Naa80)
# Type: biochemical
# Conditions: Naa80 mediated acetylation of 24-mer peptide substrates
# Excerpt: In order to investigate the in vitro activity of Naa80 further, an enzyme activity screening assay on purified Naa80 was undertaken using a broad substrate library (including amino acids, nucleosides, coenzymes, amines, saccharides, vitamins, antioxidants and peptides) modified from Kuhn et al. (Kuhn et al. (2013) “Broad-substrate screen as a tool to identify substrates for bacterial Gcn5-related N-acetyltransferases with unknown substrate specificity”. Protein Science 22(2):222-230). Among all of the potential substrates tested, only the peptides with N-terminal sequence of MDEL24 (SEQ ID NO: 45), DDDI24 (SEQ ID NO: 41) and EEEI24 (SEQ ID NO: 40) were acetylated, as shown in the following table:
# The 24-mer substrate peptides differed in their 7 N-terminal amino acids while the 17 C-terminal residues (RWGRPVGRRRRPVRVYP, SEQ ID NO: 39) were kept constant: EEEI24 (EEEIAAL, SEQ ID NO: 40), DDDI24 (DDDIAAL, SEQ ID NO: 41), MDDD24 (MDDDIAA, SEQ ID NO: 42), SESS24 (SESSSKS, SEQ ID NO: 43), AVFA24 (AVFADLD, SEQ ID NO: 44), MDEL24 (MDELFPL, SEQ ID NO: 45), MELL24 (MELLSPP, SEQ ID NO: 46), MLGT24 (MLGTGPA, SEQ ID NO: 47), MTNK24 (MTNKSSL, SEQ ID NO: 48), MLGP24 (MLGPEGG, SEQ ID NO: 49), MAPL24 (MAPLDLD, SEQ ID NO: 50), MKKS24 (MKKSYSG, SEQ ID NO: 51).
# Both MDEL (p65, SEQ ID NO: 8) and MDDD24 (unprocessed β-actin, SEQ ID NO: 42) represent cellular NatB substrates.
row,Product formation,Molecule
1,−4.25 (±1.75) μM,MTNK24: 24-mer substrate peptide: N-terminal MTNKSSL (SEQ ID NO: 48) plus constant RWGRPVGRRRRPVRVYP (MTNKSSLRWGRPVGRRRRPVRVYP)

# Biological target: T1, MBP-HishNAA80 fusion protein (MBP-Naa80)
# Experiment: cell-based or functional assay
# Conditions: not given
# Remark: another data set of the same source
row,"IC50 (µM), Nt-acetylation inhibition",Molecule
1,1.16 µM,{CoA-Ac}-EEEI-NH2 [CoA-Ac-EEEI-NH2]
2,2.23 µM,{CoA-Ac}-QEEI-NH2 [QEEI (Naa80 bisubstrate analogue inhibitor)]
3,0.12 µM,{CoA-Ac}-EDDI-NH2 [EDDI (Naa80 bisubstrate analogue inhibitor)]
4,1.16 µM,{CoA-Ac}-EEEL-NH2 [EEEL (Naa80 bisubstrate analogue inhibitor)]
5,1.26 µM,{CoA-Ac}-MDEL-NH2 [CoA-Ac-MDEL-NH2]
6,0.76 µM,{CoA-Ac}-EDEI-NH2 [EDEI (Naa80 bisubstrate analogue inhibitor)]
7,11.5 µM,{CoA-Ac}-ESEL-NH2 [ESEL (Naa80 bisubstrate analogue inhibitor)]
8,1.76 µM,{CoA-Ac}-EEDL-NH2 [EEDL (Naa80 bisubstrate analogue inhibitor)]
9,4.73 µM,{CoA-Ac}-DEEL-NH2 [DEEL (Naa80 bisubstrate analogue inhibitor)]
10,0.17 µM,{CoA-Ac}-EEDI-NH2 [EEDI (Naa80 bisubstrate analogue inhibitor)]
11,0.85 µM,{CoA-Ac}-EDQL-NH2 [EDQL (Naa80 bisubstrate analogue inhibitor)]
12,3.12 µM,{CoA-Ac}-DEDI-NH2 [DEDI (Naa80 bisubstrate analogue inhibitor)]
13,13.4 µM,{CoA-Ac}-PDEL-NH2 [PDEL (Naa80 bisubstrate analogue inhibitor)]
14,2.67 µM,{CoA-Ac}-DDEI-NH2 [DDEI (Naa80 bisubstrate analogue inhibitor)]
15,0.15 µM,{CoA-Ac}-EDEL-NH2 [EDEL (Naa80 bisubstrate analogue inhibitor)]
16,1.22 µM,{CoA-Ac}-DEEI-NH2 [DEEI (Naa80 bisubstrate analogue inhibitor)]
